Results as given in patent US20190309034A1 (Boehringer Ingelheim, published 2019).
Residue numbers refer to the chain shown, from its start.

B1: 381A6A9 (antibody, V domains shown)
VH: QVQLQQSGPELVKPGGSVKISCKAAGYSLTSYYIHWVKQRPGQGLEWIGLIFPGSGNSKYIEKFKGKATLTADTSSNTAYMQLSSLTSEDSAVYYCTRGDFGNYLAYWYFDVWGTGTTVTVSS
VL: DIKMTQSPSSIYASLGERVTITCKASQDINSYLSWFQQKPGKSPKTLMYRANRLVDGVPSRFSGSGSGQDYSLTISSLEYEDMGNYYCLQYDEFPYTFGGGAKLEIK
B2: 384D5A2 (antibody, V domains shown)
VH: QVTLKESGPGILQPSQTLSLTCSFSGFSLNTYGMGVGWIRQPSGKGLEWLANIWWNDDKYYNSALKSRLAISKDASNSQVFLKISSVDTTDTATYYCAQVAATIVTTYGAWFAYWGQGTLVTVSA
VL: DIQMTQSPASLSVSVGETVTITCRSSENIYSSLAWYQQKQGKSPQLLVYAATNLAKGVPSRFSGSGSGTQYSLKINSLQSEDFGSYFCQHFWGSPFAFGSGTKLEIK
B3: 394F5A5 (antibody, V domains shown)
VH: VTLKESGPGILQPSQTLSLTCSFSGFSLRTFGMGVGWIRQPSGKGLEWLAHIWWNDEKYYNPTLKSRLTISKDTSKNQVFLRIANVDTAVTAAYYCARIGPSITTVVEGFPYWGQGTLVTVSA
VL: DIVMTQSQKFMSTTIGDRVSITCKASQNVGSAVAWYQQKPGQPPKLLIYSTSNRYTGVPDRFTGSRSGTDFTLTVSNMQSEDLADYFCQQYASYPLTFGTGTKLELK
B4: 409F12A11 (antibody, V domains shown)
VH: IQLQQSGPELVKPGASMKISCKASGYTFTDKYINWVKQRPGQGLEWIGWIYPGSGNTKYNEKFKGMATLTVDTSSNTAYIHLSSLTSEDSAVYFCARGIIYYYDGSYPYALDYWGQGTSVTVSS
VL: DIVLTQSPASLALSLGQRATISCRATKGVSKSGYSYMHWYQQKPGQPPKLLIYLASNLESGVPARFSGSGSGTDFTLNIHPVEEEDVATYYCQHSRELPLTFGAGTKLELK
B5: 418F6D9 (antibody, V domains shown)
VH: QVQLQQSGPELVKPGASVKLSCKASGYTFTDYSIHWVKQSPGQGLEWIGWIYPGSGNTKYNDKFKGKATMTADKSSRTVYMQLSSLTSEESAVYFCARDYRRYYAIDYWGQGTSVTVSS
VL: IVLTQSSASLAVSLGQRATISCRASESVDSYGNSLMHWYQQKPGQPPKLLIYIASNLESGVPARFSGSGSRTDFTLTIDPVEADDAATYYCQQNSEDPRTFGGGTKLEIK
B6: 431G5A3 (antibody, V domains shown)
VH: QLQQSGPELVKPGASVKLSCKASGYTFTDYSIHWVKQSPGQGLEWIGWIYPGSDNTKYNDKFKGKASMTADKSSRTVYMHLSSLTSEESAVYFCARDYRRYYAMDYWGQGTSVTVSS
VL: KIVLTQSSASLAVSLGQRATISCRASESVDRYGNSLMHWYQQKPGQPPKLLIYIASNLESGVPARFSGSGSRTDFTLTIDPVEADDAATYYCQQNNEDPRTFGGGTKLEIK
B7: 435A6B3 (antibody, V domains shown)
VH: EVQLQQSGPELVKPGASMKMSCKASGYTFTSYVMHWMKQKPGQGLEWIGYLNPNNDGTKYNEKFKGKATLTSDKSSSTAYMELSSLTSEDSAVYYCARGDYSNYFYWYFDVWGAGTTVSVSS
VL: B1 VL with Q6P, I11M, S31R, M48I, N85I, A102T
B8: 436H2C12 (antibody, V domains shown)
VH: B5 VH with T30S, S33T, S55R, R77S, V79A, I106M
VL: B6 VL with K1N, S8P, R31N, L36F, Y53S, I54L
B9: 436H6A9 (antibody, V domains shown)
VH: QLQQSGPELVKPGASVKISCKASGYTFTDNFINWVKQRPGQGLEWIGWISPGSGNTKNNEKFKGKATVTVDTSSSTAYMQLSSLTSEDSAVYFCARGIIYYYDGTYPYALDYWGQGTSVTVSS
VL: B4 VL with A12G, L13V, S30T, M37I, E59Q, V87A
B10: 440E9D12 (antibody, V domains shown)
VH: QVRLRESGPGLVAPSQNLFITCTVSGFSLTDYEINWVRQPPGKNLEWLGVIWTGGGTKYNSVLISRLNISKDNSKRQVFFKMTSLQTDDTAIYYCVREGRRYYAMDYWGQGTSVTVSS
VL: NIVLTQSPASLPVSLGQRATMSCRASKSVDSYGTSFMHWYQHRPGQPPKLLISLASNLESGVPGRFSGSGSRTDFTLTIDPVEPDDAATYYCQQNNEDPRTFGGGTTLEIK
B11: 441E6F2 (antibody, V domains shown)
VH: RVQLKESGPGLVAPSQSLFITCTVSGFSLTTYEINWVRQSPGKGLEWLGVIWTGGTTKYNSAFISRLSITKDNSKSLVFLKMSSLQTDDTAIYYCVREGRRYYAMDYWGQGTSVTVSS
VL: NIVLTQSPASLAVSLGQRATISCRTSESVDSYGNSFMFWFQQKPGQAPKLLIFLTSNLESGVPARFSGSGSRTDFTLTIDPVEADDAATYYCQQSNEDPRTFGGGTKLEIK
B12: 443C11A12 (antibody, V domains shown)
VH: B7 VH with M18V, K23T, M34I, N52H, P53R, G66V, K74E, S77N
VL: B1 VL with Q6P, I11M, M48I, N85I, F98S, A102T
B13: 444G1A10 (antibody, V domains shown)
VH: B11 VH
VL: B11 VL with T25A, P81R
B14: 450A2A7 (antibody, V domains shown)
VH: B5 VH with G56D, T69S, Q82H, I106M
VL: B5 VL with S30R, S95N
B15: 537G7A6 (antibody, V domains shown)
VH: QVQLKESGPGLVAPSQSLSITCTVSGFSLSRYSVHWIRQSPGKGLEWLGMIWGGGNTDYNSGLKSRLSISKDNSKSQVFLKMNSLENDDTAMYYCASPSLYYYDVAWFPYWGQGTLVTVSA
VL: DIVLTQSPASLAVSVGQRATVSCRVSESVDRYADSFMHWYQQKPGQPPKLLIYLASNLESGVPARFSGSGSRTDFTLTIDPVEADDAATYYCQQNKEDPYTFGGGTKLELK
B16: 551H4D6 (antibody, V domains shown)
VH: EVQLQQSGAELVRPGASVELSCTASGFNIKNDYLHWVKQRPEQGLEWIGWIDSANDKTKYAPKFQDKATITADPSSNTAYLQLSSLTSEDTAVYYCTRVGVQDGYYVRDFDYWGQGTTLTVSS
VL: DIVLTQSPASLAVSLGQRATMSCRASESVDSYGNSFIHWYQQKPGQPPRLLIYRASNLNSGIPARFSGSGSRTDFTLTISSVEADDVATYYCHQNNEDPRTFGGGTKLEIK

molecular target: Recombinant soluble trimeric human BAFF (furin-cleaved human BAFF 134-285) (human, UniProt Q9Y275 134-285); assay: cell-based or functional assay

Compared with B1, B2 is lower in “Soluble trimeric huBAFF (50 pM) Neutralization IC50” value: 44 pM for the first, 42 pM for the second.

Compared with B3, B4 is higher in “Soluble trimeric huBAFF (50 pM) Neutralization IC50” value: 16 pM for the first, 31 pM for the second.

First: B5
Second: B6
The “Soluble trimeric huBAFF (50 pM) Neutralization IC50” value of the first is higher: 38 pM for the first, 28 pM for the second.

Going from B7 to B8, the “Soluble trimeric huBAFF (50 pM) Neutralization IC50” value rises from 23 pM to 27 pM.

Going from B9 to B10, the “Soluble trimeric huBAFF (50 pM) Neutralization IC50” value rises from 26 pM to 31 pM.

Compared with B11, B12 is lower in “Soluble trimeric huBAFF (50 pM) Neutralization IC50” value: 43 pM for the first, 33 pM for the second.

Compared with B13, B14 is higher in “Soluble trimeric huBAFF (50 pM) Neutralization IC50” value: 25 pM for the first, 36 pM for the second.

Compared with B15, B16 is higher in “Soluble trimeric huBAFF (50 pM) Neutralization IC50” value: 28 pM for the first, 110 pM for the second.

First: B1
Second: B2
The “Soluble trimeric huBAFF (50 pM) Neutralization IC90” value of the first is lower: 240 pM for the first, 765 pM for the second.

Going from B3 to B4, the “Soluble trimeric huBAFF (50 pM) Neutralization IC90” value falls from 433 pM to 390 pM.

Compared with B5, B6 is lower in “Soluble trimeric huBAFF (50 pM) Neutralization IC90” value: 491 pM for the first, 336 pM for the second.

First: B7
Second: B8
The “Soluble trimeric huBAFF (50 pM) Neutralization IC90” value of the first is lower: 294 pM for the first, 408 pM for the second.

Compared with B9, B10 is lower in “Soluble trimeric huBAFF (50 pM) Neutralization IC90” value: 266 pM for the first, 259 pM for the second.

First: B11
Second: B12
The “Soluble trimeric huBAFF (50 pM) Neutralization IC90” value of the first is lower: 293 pM for the first, 309 pM for the second.

Compared with B13, B14 is higher in “Soluble trimeric huBAFF (50 pM) Neutralization IC90” value: 284 pM for the first, 602 pM for the second.

Compared with B15, B16 is lower in “Soluble trimeric huBAFF (50 pM) Neutralization IC90” value: 329 pM for the first, 257 pM for the second.

molecular target: Recombinant soluble 60-mer human BAFF (His-HuBAFF 134-285) (human, UniProt Q9Y275 134-285); assay: cell-based or functional assay

First: B1
Second: B2
The “Soluble 60-mer huBAFF (4 pM) Neutralization IC50” value of the first is higher: 17 pM for the first, 15 pM for the second.

Compared with B3, B4 is higher in “Soluble 60-mer huBAFF (4 pM) Neutralization IC50” value: 7 pM for the first, 16 pM for the second.

Going from B5 to B6, the “Soluble 60-mer huBAFF (4 pM) Neutralization IC50” value falls from 27 pM to 21 pM.

Going from B7 to B8, the “Soluble 60-mer huBAFF (4 pM) Neutralization IC50” value rises from 10 pM to 15 pM.

Going from B9 to B10, the “Soluble 60-mer huBAFF (4 pM) Neutralization IC50” value rises from 10 pM to 11 pM.

Compared with B11, B12 is lower in “Soluble 60-mer huBAFF (4 pM) Neutralization IC50” value: 16 pM for the first, 13 pM for the second.

First: B13
Second: B14
The “Soluble 60-mer huBAFF (4 pM) Neutralization IC50” value of the first is lower: 12 pM for the first, 24 pM for the second.

First: B15
Second: B16
The “Soluble 60-mer huBAFF (4 pM) Neutralization IC50” value of the first is lower: 13 pM for the first, 234 pM for the second.

Compared with B1, B2 is higher in “Soluble 60-mer huBAFF (4 pM) Neutralization IC90” value: 42 pM for the first, 44 pM for the second.

Compared with B3, B4 is higher in “Soluble 60-mer huBAFF (4 pM) Neutralization IC90” value: 29 pM for the first, 44 pM for the second.

Compared with B5, B6 is lower in “Soluble 60-mer huBAFF (4 pM) Neutralization IC90” value: 154 pM for the first, 100 pM for the second.

First: B7
Second: B8
The “Soluble 60-mer huBAFF (4 pM) Neutralization IC90” value of the first is lower: 26 pM for the first, 37 pM for the second.

First: B9
Second: B10
The “Soluble 60-mer huBAFF (4 pM) Neutralization IC90” value of the first is lower: 27 pM for the first, 31 pM for the second.

First: B11
Second: B12
The “Soluble 60-mer huBAFF (4 pM) Neutralization IC90” value of the first is higher: 37 pM for the first, 30 pM for the second.

First: B13
Second: B14
The “Soluble 60-mer huBAFF (4 pM) Neutralization IC90” value of the first is lower: 35 pM for the first, 130 pM for the second.

Going from B15 to B16, the “Soluble 60-mer huBAFF (4 pM) Neutralization IC90” value rises from 39 pM to 1980 pM.
